Consider 1 substance from article doi:10.1101/2022.01.11.475947.

The target of the assay is Fusion protein of Nipah virus (F-clamp) (Nipah virus). The experiment in a line: SEC. For orientation: SEC sorts molecules by how far they enter the pores of the column.

A word on the stoichiometry N: it is a count of units in the complex or per binding partner. Fusion protein of Nipah virus (F-clamp) registered a stoichiometry N of 3.
